Measured values as given in the supplement of paper PMC7877785.
± gives the uncertainty stated by the source.

Assay: self-splicing fitness, log relative to wild type (ln ratio); higher = more splicing; Tetrahymena group I intron in knt gene, E. coli kanamycin selection, DiMSum; sequences stand for … in CUCUCU…GGAGGGAAAAGUUAUCAGGCAUGCACCUGGUAGCUAGUCUUUAAACCAAUAGAUUGCAUCGGUUUAAAAGGCAAGACCGUCAAAUUGCGGGAAAGGGGUCAACAGCCGUUCAGUACCAAGUCUCAGGGGAAACUUUGAGAUGGCCUUGCAAAGGGUAUGGUAAUAAGCUGACGGACAUGGUCCUAACCACGCAGCCAAGUCCUAAGUCAACAGAUCUUCUGUUGAUAUGGAUGCAGUUCACAGACUAAAUGUCGGUCGGGGAAGAUGUAUUCUUCUCAUAAGAUAUAGUCGGACCUCUCCUUAAUGGGAGCUAGCGGAUGAAGUGAUGCAACACUGGAGCCGCUGGGAACUAAUUUGUAUGCGAAAGUAUAUUGAUUAGUUUUGGAGUACUCGUGGUCG
Summary of the method: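 Pooled colonies went to amplicon sequencing on an Illumina HiSeq 2500 after six replicate transformations. The plates were LB agar with 100 μg/mL carbenicillin, 50 μM IPTG and 0.2% rhamnose, with or without 25 μg/mL kanamycin, incubated overnight at 37°C or 30°C. The E. coli BL21(DE3) library had all eight P1ex-region intron nucleotides randomised, the intron placed in the knt kanamycin-resistance gene on pET-22b(+). DiMSum fitness is the error-weighted combination of replicate fold changes, kanamycin against none, normalised to wild type.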

Sequence | self-splicing fitness (ln) (30 °C) | self-splicing fitness (ln) (37 °C)
UGCUAGCAAUAUUACGGCGA | -0.369 ± 0.22 | -0.302 ± 0.23
UGCUAGCAAUAUUACGGCGG | -1.15 ± 0.16 | -0.887 ± 0.23
UGCUAGCAAUAUUACGGGAA | -1.83 ± 0.15 | -0.95 ± 0.16
UGCUAGCAAUAUUACGGGGC | -3.59 ± 0.29 | -2.69 ± 0.25
UGCUAGCAAUAUUACGGGUG | -1.79 ± 0.098 | -1.3 ± 0.11
UGCUAGCAAUAUUACGGUUA | -0.0068 ± 0.062 | -0.481 ± 0.068
UGCUAGCAAUAUUACGUCGA | -1.18 ± 0.13 | -1.14 ± 0.18
UGCUAGCAAUAUUACGUGAA | -2.87 ± 0.14 | -0.167 ± 0.1
UGCUAGCAAUAUUACGUUGA | -2.84 ± 0.18 | -2.43 ± 0.24
UGCUAGCAAUAUUACGUUUA | -3.11 ± 0.19 | -1.27 ± 0.12
UGGAAGCAAUAUUACGAAGC | -3.64 ± 0.35 | -2.35 ± 0.36
UGGAAGCAAUAUUACGAGAG | -3.79 ± 0.47 | -3.3 ± 0.33
UGGAAGCAAUAUUACGAGCA | -0.526 ± 0.082 | 0.193 ± 0.1
UGGAAGCAAUAUUACGAGUC | -2.78 ± 0.29 | -3.37 ± 0.33
UGGAAGCAAUAUUACGAUUA | -1.1 ± 0.11 | 0.012 ± 0.12
UGGAAGCAAUAUUACGCAAG | – | -1.83 ± 0.37
UGGAAGCAAUAUUACGCAAU | -1.81 ± 0.24 | -0.664 ± 0.24
UGGAAGCAAUAUUACGCAGA | -2.85 ± 0.21 | -0.966 ± 0.14
UGGAAGCAAUAUUACGGACU | -0.345 ± 0.11 | 0.284 ± 0.12
UGGAAGCAAUAUUACGGCCA | -0.874 ± 0.21 | -0.244 ± 0.2
UGGAAGCAAUAUUACGGGAC | -2.63 ± 0.21 | -3.26 ± 0.32
UGGAAGCAAUAUUACGGGCC | – | -1.27 ± 0.34
UGGAAGCAAUAUUACGUAUC | -3.27 ± 0.27 | -2.28 ± 0.27
UGGAAGCAAUAUUACGUAUU | -3.06 ± 0.23 | -3.09 ± 0.33
UGGAAGCAAUAUUACGUCGC | -3.16 ± 0.45 | -2.39 ± 0.35

Sequence | self-splicing fitness (ln) (30 °C) | self-splicing fitness (ln) (37 °C)
UGGAAGCAAUAUUACGUGAU | -2.32 ± 0.2 | -1.67 ± 0.22
UGGAAGCAAUAUUACGUGCC | -2.57 ± 0.27 | -0.372 ± 0.34
UGGAAGCAAUAUUACGUUGU | -3.64 ± 0.37 | -2.88 ± 0.3
UGGCAGCAAUAUUACGAACC | -1.66 ± 0.15 | -0.775 ± 0.2
UGGCAGCAAUAUUACGAAUC | -2.3 ± 0.25 | –
UGGCAGCAAUAUUACGACGC | – | -1.72 ± 0.24
UGGCAGCAAUAUUACGCACA | -1.24 ± 0.11 | -0.127 ± 0.12
UGGCAGCAAUAUUACGCACC | -2.36 ± 0.22 | -1.37 ± 0.25
UGGCAGCAAUAUUACGCAUC | -1.93 ± 0.18 | -1.65 ± 0.16
UGGCAGCAAUAUUACGCUAG | -1.41 ± 0.077 | -0.514 ± 0.11
UGGCAGCAAUAUUACGCUCU | -2.8 ± 0.2 | -1.37 ± 0.16
UGGCAGCAAUAUUACGGCUA | -0.191 ± 0.15 | -0.128 ± 0.19
UGGCAGCAAUAUUACGGGAC | -2.88 ± 0.45 | -2.37 ± 0.49
UGGCAGCAAUAUUACGGGUA | -0.841 ± 0.11 | 0.0742 ± 0.11
UGGCAGCAAUAUUACGGGUU | -3.09 ± 0.14 | -2.45 ± 0.14
UGGCAGCAAUAUUACGUACC | -0.627 ± 0.17 | -0.885 ± 0.23
UGGCAGCAAUAUUACGUAGA | -0.926 ± 0.084 | -0.264 ± 0.094
UGGCAGCAAUAUUACGUAGG | -0.869 ± 0.092 | -0.975 ± 0.14
UGGCAGCAAUAUUACGUGGG | -2.8 ± 0.1 | -2.02 ± 0.11
UGGGAGCAAUAUUACGACAA | -2.75 ± 0.34 | -0.982 ± 0.3
UGGGAGCAAUAUUACGAGUC | – | -1.83 ± 0.47
UGGGAGCAAUAUUACGAUUA | -2.17 ± 0.22 | -2.1 ± 0.29
UGGGAGCAAUAUUACGAUUC | -4.38 ± 0.27 | -2.41 ± 0.21
UGGGAGCAAUAUUACGCAUA | -1.98 ± 0.27 | -1.22 ± 0.22
UGGGAGCAAUAUUACGCAUG | -3.28 ± 0.35 | -0.201 ± 0.22

Sequence | self-splicing fitness (ln) (30 °C) | self-splicing fitness (ln) (37 °C)
UGGGAGCAAUAUUACGGCGG | -2.86 ± 0.4 | -1.23 ± 0.46
UGGGAGCAAUAUUACGGGCC | -2.63 ± 0.32 | -1.92 ± 0.35
UGGGAGCAAUAUUACGGGGU | -1.76 ± 0.33 | -1.7 ± 0.35
UGGGAGCAAUAUUACGGUGU | -2.52 ± 0.45 | -1.9 ± 0.37
UGGGAGCAAUAUUACGUAGC | -3.22 ± 0.27 | –
UGGGAGCAAUAUUACGUAUC | -3.59 ± 0.39 | -2.56 ± 0.33
UGGGAGCAAUAUUACGUCCC | -3.01 ± 0.4 | -1.84 ± 0.41
UGGGAGCAAUAUUACGUCGG | -0.491 ± 0.24 | –
UGGGAGCAAUAUUACGUUAG | -3.58 ± 0.32 | -2.13 ± 0.23
UGGGAGCAAUAUUACGUUCU | -2.95 ± 0.29 | -2.35 ± 0.32
UGGUAGCAAUAUUACGAAAG | -3.06 ± 0.26 | –
UGGUAGCAAUAUUACGAACU | -0.279 ± 0.12 | 0.0176 ± 0.18
UGGUAGCAAUAUUACGACCA | -1.07 ± 0.18 | -1.02 ± 0.2
UGGUAGCAAUAUUACGACCC | 0.0232 ± 0.27 | -0.576 ± 0.36
UGGUAGCAAUAUUACGACUA | -0.227 ± 0.16 | -0.296 ± 0.2
UGGUAGCAAUAUUACGAGUA | -0.457 ± 0.19 | -0.963 ± 0.2
UGGUAGCAAUAUUACGAUGG | -2.44 ± 0.15 | -1.1 ± 0.17
UGGUAGCAAUAUUACGAUUU | -1.14 ± 0.14 | -0.866 ± 0.14
UGGUAGCAAUAUUACGCCAU | – | -1.09 ± 0.48
UGGUAGCAAUAUUACGCCUA | 0.144 ± 0.11 | 0.464 ± 0.12
UGGUAGCAAUAUUACGCGCU | -2.58 ± 0.18 | -1.31 ± 0.18
UGGUAGCAAUAUUACGCUCU | -2.22 ± 0.2 | -1.31 ± 0.24
UGGUAGCAAUAUUACGCUUA | -0.955 ± 0.18 | -0.553 ± 0.22
UGGUAGCAAUAUUACGGUAG | -2.53 ± 0.2 | -0.912 ± 0.14
UGGUAGCAAUAUUACGGUUA | -0.381 ± 0.12 | 0.439 ± 0.15

Sequence | self-splicing fitness (ln) (30 °C) | self-splicing fitness (ln) (37 °C)
UGGUAGCAAUAUUACGUCGC | -3.78 ± 0.21 | -2.88 ± 0.19
UGGUAGCAAUAUUACGUCGU | -2.83 ± 0.15 | -1.59 ± 0.16
UGGUAGCAAUAUUACGUGAA | -1.96 ± 0.14 | -1.57 ± 0.15
UGGUAGCAAUAUUACGUGCU | -2 ± 0.13 | -1.18 ± 0.16
UGGUAGCAAUAUUACGUUAA | -3.27 ± 0.21 | -1.78 ± 0.17
UGUAAGCAAUAUUACGAAUU | -2.57 ± 0.25 | -1.64 ± 0.19
UGUAAGCAAUAUUACGACCA | 0.386 ± 0.12 | 0.0758 ± 0.19
UGUAAGCAAUAUUACGACUA | 0.00851 ± 0.12 | 0.0364 ± 0.14
UGUAAGCAAUAUUACGCACC | -0.744 ± 0.36 | 0.286 ± 0.37
UGUAAGCAAUAUUACGCCCA | -0.177 ± 0.18 | 0.0098 ± 0.2
UGUAAGCAAUAUUACGCUCU | 0.793 ± 0.47 | -0.974 ± 0.45
UGUAAGCAAUAUUACGCUGU | -3.43 ± 0.18 | -2.07 ± 0.18
UGUAAGCAAUAUUACGGACA | -0.174 ± 0.16 | 0.153 ± 0.23
UGUAAGCAAUAUUACGGGCC | -2.87 ± 0.41 | -1.23 ± 0.41
UGUAAGCAAUAUUACGGGGG | -3.46 ± 0.22 | -1.88 ± 0.21
UGUAAGCAAUAUUACGGUCU | -0.465 ± 0.089 | -0.33 ± 0.11
UGUAAGCAAUAUUACGGUUC | – | -2.92 ± 0.31
UGUAAGCAAUAUUACGUAAC | -2.22 ± 0.15 | -2.91 ± 0.4
UGUAAGCAAUAUUACGUACA | -0.772 ± 0.098 | -0.557 ± 0.16
UGUAAGCAAUAUUACGUCUC | – | -1.56 ± 0.23
UGUAAGCAAUAUUACGUUGG | -2.14 ± 0.14 | -1.46 ± 0.18
UGUCAGCAAUAUUACGAAGG | -1.69 ± 0.1 | -0.409 ± 0.14
UGUCAGCAAUAUUACGACUC | -1.12 ± 0.14 | 0.256 ± 0.16
